Test results taken from patent publication US20240327869, “SYNTHETIC GENETIC ELEMENTS FOR BIOMANUFACTURE” (JANSSEN BIOTECH, INC., published 2024).

T1: SR21 serine recombinase (Serine Recombinase 21) (Bacillus safensis strain CCMA-560)
T1 chain: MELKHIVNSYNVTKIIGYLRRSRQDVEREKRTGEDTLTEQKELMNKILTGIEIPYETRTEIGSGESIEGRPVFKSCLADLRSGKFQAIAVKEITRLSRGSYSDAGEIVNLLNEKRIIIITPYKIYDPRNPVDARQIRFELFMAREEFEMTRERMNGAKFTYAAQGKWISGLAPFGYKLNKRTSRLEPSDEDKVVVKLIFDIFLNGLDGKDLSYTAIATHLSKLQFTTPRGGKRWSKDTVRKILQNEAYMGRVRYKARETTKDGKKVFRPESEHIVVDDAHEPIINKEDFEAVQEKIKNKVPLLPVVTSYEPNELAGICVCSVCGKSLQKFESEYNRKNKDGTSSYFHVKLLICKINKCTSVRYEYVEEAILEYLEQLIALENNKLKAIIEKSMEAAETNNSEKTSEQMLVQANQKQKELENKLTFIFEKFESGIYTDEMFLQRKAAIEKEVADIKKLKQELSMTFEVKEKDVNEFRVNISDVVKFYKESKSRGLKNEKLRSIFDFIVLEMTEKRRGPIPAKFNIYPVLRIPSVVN

B1: SR21 attP (dsDNA)
DNA 1: AATTAAGTATCATGATAAACTGACAAAGCGGTATATCAAGATACTTAATA
DNA 2: TATTAAGTATCTTGATATACCGCTTTGTCAGTTTATCATGATACTTAATT
B2: SR21 attB (Fairview) (dsDNA)
DNA 1: CGTCAACATCTCCACTGACAAAGCGGTTTCTCCAACGAAT
DNA 2: ATTCGTTGGAGAAACCGCTTTGTCAGTGGAGATGTTGACG

Assays:
[1] = molecular target: T1, SR21 serine recombinase (Serine …); assay: cell_activity; attP x attB (SEQ 9) inversion reporter P41 in HEK293, fold increase in fLUC over reporter alone, 37 C 48 h; details: tags: untagged; expressed from CMV promoter plasmid P175 or Ad5-CMV-SR21
Description: (§1) To measure SR21 recombinase activity in human cells, 75,000 HEK293 cells were plated into each well of 96-well tissue culture plates in 100 μl of high-glucose DMEM+10% Fetal Bovine Serum. The recombinase reporter plasmid (P041) ±the SR21 Recombinase expression plasmid (P175)+deoxynucleotides (to normalize DNA amounts) were complexed with Fugene-HD transfection reagent in OptiMEM medium for 15 minutes at room temperature as shown in Table 1 and transfected into triplicate wells of the plated cells. Plates were incubated at 37° C. for 48 hours.
(§2) Firefly Luciferase (fLUC) and Renilla luciferase (rLUC) was assayed sequentially in transfected wells using the Dual Glo assay kit from Promega. Medium was removed from the transfected wells of the tissue culture plate and 100 μl of a 1:1 mixture of DMEM medium (without phenol red) and the Dual Glo luciferase+ fLUC substrate was added. The plate was incubated at room temperature for 10 minutes. The lysate was transferred to an opaque white 96-well plate. fLUC activity was measured using the Envision multilabel reader. Next, 50 μl per well of the Stop-and-Glo buffer+Renilla substrate was added and the plate was incubated with gentle shaking for 10 minutes. The Renilla luciferase signal was read on the same Envision reader.

[2] = molecular target: T1, SR21 serine recombinase (Serine …); assay: cell_activity; attB partner of attP (SEQ 7) in inversion reporter P41, HEK293, fold increase in fLUC over reporter alone; details: tags: untagged; expressed from CMV promoter plasmid P175 or Ad5-CMV-SR21
Description: as §1, §2

| Binder | activity [1] [fold] | activity [2] [fold] |
| --- | --- | --- |
| B1 | 1540 | – |
| B2 | – | 1540 |
